The target of one test is T1, Peptide F1-BSA (C-terminal Cys conjugated to BSA).
T1 construct: BSA-conjugated human FAM19A5 peptide fragment F1, lane 3; size printed as 105 kDa
T1 peptide: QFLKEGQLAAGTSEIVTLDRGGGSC
The test is described as follows: Western blot, 300 ng antigen per well, anti-rabbit IgG (Fc specific)-HRP 1:4000. (In general: In western blotting, separated proteins are transferred to a membrane and probed.)

For the next test, the target named is T2, Peptide F6-BSA (C-terminal Cys conjugated to BSA).
T2 construct: BSA-conjugated human FAM19A5 peptide fragment F6, lane 8; size printed as 103 kDa
T2 peptide: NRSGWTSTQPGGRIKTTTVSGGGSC
Described as above.

The next test concerns the target T3, Peptide F4-BSA (C-terminal Cys conjugated to BSA).
T3 construct: BSA-conjugated human FAM19A5 peptide fragment F4, lane 6; size printed as 106 kDa
T3 peptide: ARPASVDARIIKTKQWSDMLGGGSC
Described as above.

The target in the next test is FAM19A1-flag. Kind of test: immunoblot of vector and flag-tagged FAM19A1 to FAM19A5 samples.

B1: 1-65-scFv-rabbit-Fc-SSS (Fc fusion)
VH: AVTLDESGGGLQTPGGALSLVCKASGFTFSSYQMGWVRQAPGKGLEWVGVINKSGSDTSYGSAVKGRATISRDNGQSTVRLQLNNLRAEDTGTYFCAKGSASYITAATIDAWGHGTEVIVSS
VL: ALTQPSSVSANPGETVKITCSGGGSSGYGYGWYQQKSPSSAPLTVIYWNDKRPSDIPSRFSGSKSGSTHTLTITGVQAEDEAVYFCGNDDYSSDSGYVGVFGAGTTLTVL
notes: scFv of 1-65 fused to rabbit Fc ('SSS'), used as primary antibody in the Western blot; also called anti-FAM19A5 antibody 1-65; monoclonal antibody clone 1-65
As for B1, the binding result with Peptide F1-BSA, in the test with Peptide F6-BSA and with Peptide F4-BSA was “no binding (tested: 2 ug/ml)” each time.

B2: chimeric anti-FAM19A5-IgG2/4 monoclonal antibody (1-65) (antibody, V domains shown)
VH: B1 VH
VL: B1 VL
notes: also called anti-FAM19A5-IgG2/4 antibody
Regarding B2, the binding result in the test with FAM19A1-flag is “no binding”.

The values above are taken from patent US20230357378A1 (NEURACLE SCIENCE, published 2023).
